Experimental data taken from patent US20240209043A1 (ORAL SUBSIDIARY SUN YAT SEN UNIVERSITY HOSPITAL, published 2024).
Where no end group is shown, it is not given here.

Assays:
[1] = target: T1, Recombinant Human PD-1 protein (PD1-H5221, Acro Biosystems) (human, UniProt Q15116 25-167); test: SPR (Biacore T100), recombinant human PD-1 coupled to a CM5 chip, peptide as analyte at 0.3125-20 µM
T1 construct: Bought reagent, amine-coupled to a CM5 chip for SPR
Experimental: (§1) The affinity of the peptides was tested with Biocore T100 through surface plasmon resonance (SPR) technique. […] Finally, the affinities (Kd-value) of the peptides were calculated by fitting curves in the sensor diagram in Biacore software.

[2] = target: T2, PD-1 on the surface of cells (Jurkat T cells stimulated with PMA and ionomycin; iCIKs) (human, UniProt Q15116 25-288); test: flow cytometry blocking assay: peptide mixed with recombinant human PD-L1, PD-L1 binding to PD-1-expressing stimulated Jurkat T cells read with APC streptavidin
T2 construct: whole, on cells; Endogenous PD-1 of human cells; also called PD-1 on the surface of Jurkat T cells; PD-1-expressing Jurkat T cells
T2 sequence (Q15116 25-288): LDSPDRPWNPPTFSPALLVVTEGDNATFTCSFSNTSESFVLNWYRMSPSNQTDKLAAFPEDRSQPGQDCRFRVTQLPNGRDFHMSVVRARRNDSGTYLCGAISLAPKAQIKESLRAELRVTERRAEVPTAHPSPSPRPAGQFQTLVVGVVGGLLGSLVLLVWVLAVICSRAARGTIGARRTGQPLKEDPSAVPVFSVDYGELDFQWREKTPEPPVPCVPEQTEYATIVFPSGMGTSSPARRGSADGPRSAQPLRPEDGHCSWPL
Experimental: (§2) The Jurkat T cells were divided into two groups, an experimental group and a control group, wherein in the experimental group, 50 ng/ml of Phorbol 12-myristate 13-acetate (PAM) and 1 ug/ml of Ionomycin Calcium Salt (Ionomycin) were used to stimulate the cells, and in the control group, Jurkat T cells were unstimulated. The cells (5×10⁵) were collected in each tube, and washed once with FACS buffer (PBS with 2% BSA). […] FACS buffer was used for washing the cells three times, and 0.12 ug/ml of APC Streptavidin (405207, Biolegend) was added to each tube and the incubation was performed for 1 hour at 4° C., and then the cells were washed three times with FACS buffer again, and 500 μl of PBS was added to resuspend the cells, which were further transferred to flow tubes and analyzed by flow cytometry.

[3] = target: T1, Recombinant Human PD-1 protein …; test: SPR (Biacore T100), recombinant human PD-1 coupled to a CM5 chip, peptide as analyte at 0.03125-2 µM
Experimental: as §1

[4] = target: T3, Recombinant Human PD-L1 protein (PD1-H82F3, Acro Biosystems) (human, UniProt Q9NZQ7 19-238); test: SPR (Biacore T100), recombinant human PD-L1 coupled to a CM5 chip, peptide as analyte at 0.03125-2 µM
T3 construct: Bought reagent
T3 sequence (Q9NZQ7 19-238 limits assumed): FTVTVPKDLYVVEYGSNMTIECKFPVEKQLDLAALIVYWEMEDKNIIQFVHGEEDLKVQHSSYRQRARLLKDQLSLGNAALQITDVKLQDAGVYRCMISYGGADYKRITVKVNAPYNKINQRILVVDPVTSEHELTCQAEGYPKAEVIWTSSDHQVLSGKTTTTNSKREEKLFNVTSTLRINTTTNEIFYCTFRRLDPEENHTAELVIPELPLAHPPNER
Experimental: as §1

[5] = target: T3, Recombinant Human PD-L1 protein …; test: SPR (Biacore T100), recombinant human PD-L1 coupled to CM5 chip, peptide as analyte
Experimental: as §1

[6] = target: T1, Recombinant Human PD-1 protein …; test: SPR (Biacore T100), recombinant human PD-1 coupled to CM5 chip, peptide as analyte
Experimental: as §1

[7] = target: T2, PD-1 on the surface of cells (Jurkat T …); test: flow cytometry blocking assay: peptide mixed with recombinant human PD-L1, PD-L1 binding to PD-1-expressing stimulated Jurkat T cells read with APC streptavidin; nABP486 also binds PD-L1 itself (Figure 2D)
Experimental: as §2

T1 sequence (Q15116 25-167 limits assumed): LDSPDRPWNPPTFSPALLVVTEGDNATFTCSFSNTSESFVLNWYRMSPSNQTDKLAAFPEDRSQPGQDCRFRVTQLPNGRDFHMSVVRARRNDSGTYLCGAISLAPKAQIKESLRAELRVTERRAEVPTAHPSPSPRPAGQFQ

| Binder | Kd [1] | IC50 [2] | koff [3] | kon [3] | koff [4] | kon [4] | Kd [5] | Kd [6] | Kd [4] | IC50 [7] |
| --- | --- | --- | --- | --- | --- | --- | --- | --- | --- | --- |
| SRLKEIANSPTQFWRMVARNTLGGAKQSLNIEHARL (not fully specified, also called PD-1-nABP284) [nABP284] | 11800 nM | 9610 nM |  |  |  |  |  |  |  |  |
| nABP386 (also: bond at chain A 27 at chain B 6 to a chain's C-terminus, Branched synthetic peptide (Fmoc solid-phase synthesis)) chain 1: SRLKEIANSPTQFWRMVARNTLGNHAKQSLNIEHA chain 2: SHHHRL |  | 3420 nM | 0.00293 s⁻¹ | 39000 M⁻¹ s⁻¹ |  |  |  | 75.1 nM |  |  |

Other lines, results leading:

| Kd [1] | IC50 [2] | koff [3] | kon [3] | koff [4] | kon [4] | Kd [5] | Kd [6] | Kd [4] | IC50 [7] | Binder |
| --- | --- | --- | --- | --- | --- | --- | --- | --- | --- | --- |
|  |  | 0.000453 s⁻¹ | 77600 M⁻¹ s⁻¹ | 0.000486 s⁻¹ | 29000 M⁻¹ s⁻¹ | 16.7 nM | 5.84 nM |  |  | nABP786 (cysteine pairing not given here; also: lactam at chain A 7 at chain B 6 to a chain's C-terminus) chain 1: SHHHRLKLKEIANCSPTQFKC chain 2: SHHHRL |
|  |  | 0.00589 s⁻¹ | 496000 M⁻¹ s⁻¹ | 0.00204 s⁻¹ | 38900 M⁻¹ s⁻¹ | 54.2 nM | 11.9 nM | 52.4 nM | 2580 nM | nABP486 (also: lactam at chain A 7 at chain B 6 to a chain's C-terminus, Branched synthetic peptide (Fmoc solid-phase synthesis)) chain 1: SHHHRLKLKEIANSPTQFWRMVARNTLGNGAKQSLNIEHA chain 2: SHHHRL |
